Measurements taken from paper PMC6971037, “Molecular basis for histidine N3-specific methylation of actin H73 by SETD3” (Cell Discovery, 2020).

What was measured:
[1] = target: T1, SETD3 residues 20–494 (as labelled for the ITC titrations) (human, UniProt Q86TU7 20-494); experiment: ITC; SETD3 titrated with actin peptide in the presence of SAH; settings: both partners purified
T1 construct: also called SETD3_(20–494)
T1 sequence (looked up): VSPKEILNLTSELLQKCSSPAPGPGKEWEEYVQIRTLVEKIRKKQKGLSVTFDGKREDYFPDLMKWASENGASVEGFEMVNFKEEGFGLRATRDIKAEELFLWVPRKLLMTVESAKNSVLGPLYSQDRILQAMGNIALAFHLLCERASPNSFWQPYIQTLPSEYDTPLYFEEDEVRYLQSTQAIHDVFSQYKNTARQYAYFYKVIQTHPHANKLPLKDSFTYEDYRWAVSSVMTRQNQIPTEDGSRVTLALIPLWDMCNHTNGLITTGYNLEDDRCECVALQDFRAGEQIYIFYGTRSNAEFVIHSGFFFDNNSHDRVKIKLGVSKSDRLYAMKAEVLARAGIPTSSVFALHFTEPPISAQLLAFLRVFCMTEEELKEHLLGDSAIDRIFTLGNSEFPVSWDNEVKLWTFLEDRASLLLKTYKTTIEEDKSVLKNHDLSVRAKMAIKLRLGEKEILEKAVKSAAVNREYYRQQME

[2] = target: T1, SETD3 residues 20–494 (as labelled for …); experiment: ITC; SETD3 titrated with actin peptide in the presence of SFG (sinefungin); settings: both partners purified

B1: β-actin peptide (60–81) (peptide, UniProt P60709 60-81, looked up)
peptide: SKRGILTLKYPIEHGIVTNWDD
notes: β-actin, residues 60-81; residues 66-81 were built in the structure; also called wild-type actin peptide
**Q.** Which results are given for B1?
**A.** Kd [1]: 0.15 µM; Kd [2]: 5.01 µM

B2: H73A mutant actin peptide (peptide, UniProt P60709 60-81, looked up)
peptide: SKRGILTLKYPIEAGIVTNWDD
notes: β-actin peptide with H73A; The limits 60-81 are those of the wild-type peptide; also called H73A actin peptide; H73A mutant peptide
**Q.** For B2, which Kd [1] is on record?
**A.** 0.81 µM

**Q.** And the Kd [2]?
**A.** 1 µM
